{"source": "patent US20120165265A1", "about": "“Calcium Signaling Modulators Involving STIM and ORAI Proteins” (priority 2009, published 2012)", "key": {"CRAC channels": {"target": "T1, CRAC channels (Homo sapiens, UniProt Q96D31)", "T1 construct": "expressed in transfected cells; host or cells: HEK 293", "T1 sequence (Q96D31 whole entry, the tested form may be a part)": "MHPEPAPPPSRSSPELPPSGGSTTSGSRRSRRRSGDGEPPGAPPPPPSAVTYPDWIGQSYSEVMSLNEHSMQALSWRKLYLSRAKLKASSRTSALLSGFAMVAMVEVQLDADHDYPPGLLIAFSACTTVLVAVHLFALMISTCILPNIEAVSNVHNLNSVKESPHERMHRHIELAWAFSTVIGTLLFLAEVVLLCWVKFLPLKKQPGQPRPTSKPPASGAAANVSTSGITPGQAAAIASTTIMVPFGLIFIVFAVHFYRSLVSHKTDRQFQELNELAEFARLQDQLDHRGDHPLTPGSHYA", "assay": "[Ca2+]i imaging in HEK 293 cells expressing STIM1 fragment and Orai1", "assay_type": "cell-based", "conditions": "for effect on CAD-induced sustained elevation of [Ca2+]i: HEK 293 cells expressing Orai1 and CAD", "experimental": "Ca^2+ Imaging. For FIG. 2, cells were loaded at 37° C. in DMEM with 1 μM fura-2/AM for 30 min. Ratiometric Ca2+ imaging was performed at 340 and 380 nm in 2 mM Ca2+ Ringer's solution with a Nikon Eclipse 2000-U inverted microscope equipped with a fluorescent arc lamp, excitation filter wheel, and a Hamamatsu Orca CCD camera. Images were collected using Openlab (Improvision) and analyzed using Igor Pro.\nTo determine if CAD activates store operated Ca^2+ influx in cells, we measured [Ca^2+]i in HEK 293 cells expressing CAD and Orai1."}, "Orai1 [1]": {"target": "T2, Orai1 (Homo sapiens, UniProt Q96D31)", "T2 sequence (Q96D31 whole entry)": "as the sequence (Q96D31 whole entry, the tested form may be a part) above", "assay": "Whole-cell patch clamp recording of ICRAC in transfected HEK 293 cells", "assay_type": "cell-based", "design": "expressed in transfected cells; host or cells: HEK 293", "experimental": "Electrophysiology. HEK 293 cells were transfected 8-24 h prior to electrophysiology experiments with STIM1- and Orai1-derived constructs in a 1:1 mass ratio using Lipofectamine 2000. […] ICRAC in cells cultured without LaCl3 was similar to that in cells cultured with LaCl3, but most cells without LaCl3 died soon after break-in.\nCurrents were recorded using standard whole-cell patch clamp techniques (Prakriya and Lewis, 2001). Pipettes of resistance 2-5 MΩ were filled with an internal solution containing (in mM) 150 Cs aspartate, 8 MgCl2, 10 EGTA, and 10 HEPES (pH 7.2 with CsOH). Currents were sampled at 5 kHz and filtered at 2 kHz, and all voltages were corrected for the junction potential of the pipette solution relative to Ringer's in the bath (−13 mV).\nPatch-clamp Experiments. Pipette-membrane seals were formed in 2 mM Ca^2+ Ringer's solution. After break-in to the whole-cell configuration, voltage stimuli consisting of a 100-ms step to −100 mV followed by a 100-ms ramp from −100 to +100 mV were delivered every 5 s from the holding potential of +30 mV. After the currents reached a steady level (˜300 s for wild-type STIM1), the external solution was changed via a multibarrel local perfusion pipette to a high-Ca^2+ Ringer's containing (in mM) 130 NaCl, 4.5 KCl, 20 CaCl2, 1 MgCl2, 10 D-glucose, and 5 HEPES (pH 7.4 with NaOH). All data were leak-corrected using the current elicited in 20 mM Ca^2+ Ringer's+10 μM LaCl3 at the end of the each experiment. LaCl3 and 2-APB were added directly to parent solutions on the day of the experiment from 10 mM and 100 mM stocks in H2O and DMSO, respectively.\nAs a definitive test for CRAC channel activation, we conducted whole-cell patch clamp recordings from HEK 293 cells transiently transfected with myc-Orai1 and either YFP-STIM1 or YFP-CAD. In cells expressing full length YFP-STIM1, ICRAC appeared over several minutes following break-in, consistent with the typical slow activation seen in response to passive store depletion (FIG. 2D). […] In contrast, inward current was present from the moment of break-in in cells expressing YFP-CAD (FIG. 2E). This current was identified as ICRAC based on its dependence on extracellular Ca^2+, inward rectification, sequential enhancement and inhibition by 2-APB, and inhibition by La^3+ (FIG. 2E and FIG. 10 C, D). ICRAC was not observed at break-in in HEK 293 cells transfected with YFP or YFP-CAD in the absence of Orai1 (FIG. 2F), consistent with the low level of endogenous STIM1 and Orai1 in these cells. […] Inactivation was restored by addition of STIM1 residues carboxy-terminal to CAD."}, "CAD [2]": {"target": "T3, CAD (Homo sapiens, UniProt Q13586)", "T3 construct": "For STIM1 342-448 (CAD); expressed in transfected cells; host or cells: HEK 293T", "T3 sequence (Q13586 342-448)": "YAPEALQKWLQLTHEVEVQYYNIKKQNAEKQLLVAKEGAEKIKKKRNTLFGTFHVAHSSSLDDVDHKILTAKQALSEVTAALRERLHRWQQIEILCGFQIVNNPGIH", "assay": "Yeast split ubiquitin assay, Orai1 fragments with CAD", "assay_type": "binding", "conditions": "NubG-Orai1 fragment with CAD-Cub-LV in yeast", "experimental": "Split-Ubiquitin Yeast Two Hybrid Assay. Screening was performed according to the manufacturer's instructions (Dualsystems Biotech). Transformed yeast were selected on media lacking Trp and Leu (-TL). Interaction was observed by cell growth on plates lacking Trp, Leu, and His (TLH) in the presence of 3-aminotriazole (3-AT). Protein interactions were also assessed by measuring lacZ activity using the chromogenic substrate X-gal (5-bromo-4-chloro-3-indolyl-β-galactopyranoside).\nSplit-Ubiquitin Yeast Two Hybrid Assay. To generate fusion proteins with the N-terminal half of ubiquitin (Nub), full-length or fragments of Orai1 were amplified by PCR and cloned into the pDL2-Nubx vector (Dualsystems Biotech). The Nub sequence in the pDL2-Nubx plasmid contains a point mutation (NubG) that abolishes the spontaneous association of Nub to the C-terminal half of ubiquitin (Cub). The CAD was subcloned into the pAMBV4 vector, which contains Cub fused to a chimeric transcription factor consisting of the DNA binding domain from LexA and the VP16 transactivation domain.\n(§1) STIM1-CAD BINDS TO THE N- AND C-TERMINI OF ORAI1. To identify regions of Orai1 important for activation by CAD, we characterized the binding of CAD to Orai1 using two approaches. First we expressed fusions of NubG with the N-terminus, the II-III cytoplasmic loop and the C-terminus of Orai1 in yeast together with different CAD-Cub-LV constructs. […] Based on the level of b-gal activity, CAD appears to interact with the Orai1 C-terminus with a higher affinity than with the N-terminus. We next expressed fusions of YFP with the N-terminus, the II-III loop and the C-terminus of Orai1 in HEK 293T cells together with Flag-myc-CAD.\n(§2) To explore the interaction between the N-terminus of Orai1 and CAD in more detail we mapped the subregion within the N-terminus of Orai1 that is responsible for CAD binding, using both the split ubiquitin and HEK 293T co-immunoprecipitation assays."}, "CAD [3]": {"target": "T3, CAD", "assay": "Co-immunoprecipitation of Orai1 fragments with CAD in HEK 293T cells", "assay_type": "binding", "conditions": "YFP-tagged Orai1 fragment with Flag-myc-CAD in HEK 293T cells", "experimental": "(§3) Immunoprecipitation and Immunoblot Analysis. Transfected HEK 293T cells (12-24 h) were washed with PBS and lysed in 50 mM Tris-HCl pH 7.5, 150 mM NaCl, 1% Triton X-100, and protease inhibitors. Lysates were spun at 12,000 rpm for 10 min, and the supernatant was incubated with anti-Flag M2 agarose beads (Sigma), or anti-myc or -HA antibody followed by IgG agarose beads (Pierce). Lysates and immunoprecipitates were subjected to SDS-PAGE, probed with HRP-conjugated secondary antibody and detected by enhanced chemiluminescence (Pierce).\nas §1, §2"}, "Orai1 [4]": {"target": "T2, Orai1", "assay": "Co-immunoprecipitation with Orai1 in HEK 293T cells", "assay_type": "binding", "design": "expressed in transfected cells; host or cells: HEK 293", "conditions": "150 mM salt, 1% Triton X-100", "experimental": "as §3\nCAD Associates with Orai1 in vivo and in vitro. Because cytosolic CAD is a potent activator of Orai1 channels and is not associated with the ER, we hypothesized that CAD binds to Orai1. To test this idea, we first expressed YFP-CAD with or without myc-Orai1 in HEK 293 cells and examined its intracellular localization. […] To provide additional evidence that CAD and Orai1 are part of the same protein complex we expressed Flag-tagged CAD and GFP-tagged Orai1 in HEK 293T cells and immunoprecipitated CAD with anti-Flag antibodies. GFP-myc-Orai1 was detected in the immunoprecipitates from cells co-expressing CAD and Orai1 but not from cells expressing CAD or Orai1 alone (FIG. 3B).\nThus, CAD and Orai1 form a protein complex in mammalian cells."}}}
{"compound": "NCCOB(c1ccccc1)c1ccccc1", "note": "[2-APB, 2-Aminoethoxydiphenylborate, reference compound]", "values": [{"measurement": "effect on CAD-induced sustained elevation of [Ca2+]i", "setting": "CRAC channels; 100 μM 2-APB", "result": "blocked"}, {"measurement": "effect on constitutive CAD-dependent ICRAC", "setting": "Orai1 [1]; YFP-CAD+myc-Orai1 HEK 293 cell, 50 μM 2-APB, 20 mM Ca2+", "result": "increase in CAD-dependent current followed by a slower inhibition"}]}
{"compound": "[Cl][La]([Cl])[Cl]", "note": "[La^3+, LaCl3, reference compound]", "values": [{"measurement": "effect on CAD-induced sustained elevation of [Ca2+]i", "setting": "CRAC channels; 10 μM La3+", "result": "blocked"}, {"measurement": "effect on CAD-supported current", "setting": "Orai1 [1]; YFP-CAD+myc-Orai1 cell, 10 μM LaCl3, 20 mM Ca2+o", "result": "rapid inhibition of current"}]}
{"compound": "C-terminus of Orai1: Orai1 C-terminal fragment, SEQ ID NO:6 (HFYRSLVSHKTDRQFQELNELAEFARLQDQLDHRGDHPLTPGSHYA; H. sapiens)", "values": [{"measurement": "interaction with CAD (b-gal, growth without histidine)", "setting": "CAD [2]", "result": "strong interaction"}, {"measurement": "co-immunoprecipitation with CAD", "setting": "CAD [3]", "result": "interacts"}]}
{"compound": "CAD (342-440): CAD peptide with the last 8 aa deleted", "values": [{"measurement": "[Ca2+]i / CRAC channel activation", "setting": "CRAC channels; HEK 293 cells coexpressing construct and Orai1, no store depletion", "result": "eliminates its ability to activate CRAC channels"}, {"measurement": "co-immunoprecipitation with Orai1", "setting": "Orai1 [4]", "result": "retained the ability to bind to Orai1"}]}
{"compound": "II-III loop of Orai1: Orai1 II-III cytoplasmic loop aa 142-177, SEQ ID NO:5", "values": [{"measurement": "interaction with CAD (b-gal, growth without histidine)", "setting": "CAD [2]", "result": "lack of interaction"}, {"measurement": "co-immunoprecipitation with CAD", "setting": "CAD [3]", "result": "not"}]}
{"compound": "N-terminus of Orai1 (aa 1-91): Orai1 N-terminal fragment aa 1-91, SEQ ID NO:2", "values": [{"measurement": "interaction with CAD (b-gal, growth without histidine)", "setting": "CAD [2]", "result": "weaker interaction"}, {"measurement": "co-immunoprecipitation with CAD", "setting": "CAD [3]", "result": "only very weakly"}, {"measurement": "co-immunoprecipitation with CAD", "setting": "CAD [3]; listed as N-terminus", "result": "interacts"}]}
{"compound": "Orai148-70: Orai1 fragment aa 48-70 (SAVTYPDWIGQSYSEVMSLNEHS; UniProt Q96D31 48-70, looked up, fragment)", "values": [{"measurement": "interaction with CAD (b-gal, growth without histidine)", "setting": "CAD [2]", "result": "not"}]}
{"compound": "Orai148-91: Orai1 N-terminal fragment aa 48-91, SEQ ID NO:3", "values": [{"measurement": "interaction with CAD (b-gal, growth without histidine)", "setting": "CAD [2]", "result": "interacted strongly"}, {"measurement": "co-immunoprecipitation with CAD", "setting": "CAD [3]", "result": "co-immunoprecipitated"}, {"measurement": "co-immunoprecipitation with CAD", "setting": "CAD [3]; listed as Orai1-NT(48-91)", "result": "co-immunoprecipitates"}]}
{"compound": "Orai168-91: Orai1 fragment aa 68-91", "values": [{"measurement": "interaction with CAD (b-gal, growth without histidine)", "setting": "CAD [2]", "result": "interacted strongly"}]}
{"compound": "YFP-CT-STIM1: YFP-tagged CT-STIM1 (236-685) [reference compound]", "values": [{"measurement": "constitutive ICRAC", "setting": "Orai1 [1]; HEK 293 cells cotransfected with construct and myc-Orai1, from break-in", "result": "failed to activate constitutive ICRAC"}]}
